Experimental data: patent US20200407441A1 (I MAB BIOPHARMA US, published 2020)
Values belong to the molecule of their own block, whether it stands above or below them.

Columns and labels:
[1] = target: CD47 on human red blood cells (human) (UniProt Q08722); test: flow cytometry on human RBCs, Donor 1
[2] = target: CD47 on human red blood cells (human) (UniProt Q08722); test: flow cytometry on human RBCs, Donor 2
[3] = target: T1, CD47 (form not stated) (UniProt Q08722 19-139, limits assumed); test: Biacore
[4] = target: T2, human CD47 on Raji cells (human, UniProt Q08722 19-323); test: flow cytometry on Raji cells
T2 construct: whole, on cells; also called CD47+ Raji cells; CD47-bearing Raji cells
Procedure: (§1) Then, the cells were washed with PBS three times, followed by incubation with APC-labeled anti-human Fc specific antibody (Invitrogen) at 4° C. for 30 minutes. Binding was measured using a FACSCanto (Becton-Dickinson).

[5] = target: T1, CD47 (form not stated); test: BiaCore (SPR); format not stated
[6] = target: T3, recombinant human CD47/mouse Fc fusion protein (Acrobiosystems) (human, UniProt Q08722 19-139); test: ELISA on recombinant CD47-ECD (FIG. 2b, dimeric CD47-ECD)
T3 construct: extracellular domain; Bought reagent; also called dimeric CD47-ECD; not shown: Mouse Fc

[7] = target: T2, human CD47 on Raji cells; test: flow cytometry on Raji cells, APC anti-human Fc
Procedure: as §1

[8] = target: T4, recombinant human CD47-Fc fusion protein (Acrobiosystems) (human, UniProt Q08722 19-139); test: competition ELISA: blocks SIRPα-His binding to coated CD47-Fc
T4 construct: extracellular domain; also called recombinant CD47-Fc fusion protein; not shown: Fc

[9] = target: T5, Tag1-CD47 (Cisbio HTRF kit) (UniProt Q08722 19-139); test: HTRF competition: blocks Tag1-CD47 / Tag2-SIRPα interaction (Cisbio)
T5 construct: Kit reagent
Procedure: (§2) The mixture was incubated at 25° C. for 15 minutes, and further incubated at 25° C. for 1 hour after conjugates pre-mixture was added. Then the plate sealer was removed and fluorescence data was read on a PerkinElmer Envision plate reader.

[10] = target: T3, recombinant human CD47/mouse Fc fusion …; test: ELISA, CD47/mouse Fc coated at 1 ug/ml, anti-human Fc HRP
Procedure: CD47/mouse Fc fusion protein (Acrobiosystems) was coated at 1 ug/ml in PBS onto microtiter plates for 2 hours at RT. After coating of antigen the wells were blocked with PBS/0.05% Tween (PBST) with 1% BSA for 1 hour at RT. After washing of the wells with PBST, different concentrations of anti-CD47 antibodies were added to the well and incubated for 1 at RT. For detection of the binding antibodies, the HRP conjugated secondary antibodies against human Fc (Jackson Immuno Research) were added followed by the addition of fluorogenic substrates (Roche). Between all incubation steps, the wells of the plate were washed with PBST three times. Fluorescence was measured in a TECAN Spectrafluor plate reader.

[11] = target: T6, biotinylated human CD47-ECD protein (Acrobiosystems) (human, UniProt Q08722 19-139, biotinylated (site not stated)); test: ELISA, biotinylated CD47 coated at 1 ug/mL, anti-human Fc HRP
T6 construct: extracellular domain; Bought reagent; also called biotinylated CD47 protein; monomeric CD47-ECD

[12] = target: CD47 on human platelets (human) (UniProt Q08722); test: flow cytometry on human whole blood, gated on CD61 positive platelets, antibody at 10 ug/mL
[13] = target: T4, recombinant human CD47-Fc fusion …; test: blocking ELISA, CD47-Fc coated, blocked ligand SIRPa-His at 1 ug/mL, anti-His HRP
Procedure: Recombinant CD47-Fc fusion protein (Acrobiosystems) was coated at 1 ug/ml in PBS onto microtiter plates for 16 hours at 4° C. […] Plates were subsequently washed three times and incubated with an HRP-conjugated anti-His secondary antibody for 1 h at RT.

[14] = target: T1, CD47 (form not stated); test: Biacore (SPR); format not stated
[15] = target: T2, human CD47 on Raji cells; test: flow cytometry on Raji cells, MFI
[16] = target: T5, Tag1-CD47 (Cisbio HTRF kit); test: HTRF CD47-SIRPa binding assay (ratio 665 nm / 615 nm), blocked ligand Tag2-SIRPa
Procedure: as §2

[17] = target: T7, human CD47-ECD (human, UniProt Q08722 19-139, limits assumed, N-terminal pyroglutamate (seen in the crystal structure)); test: ELISA on recombinant CD47-ECD; recombinant CD47-ECD
T7 construct: extracellular domain; also called recombinant CD47-ECD; CD47 ECD protein

[18] = target: T2, human CD47 on Raji cells; test: flow cytometry on Raji cells; CD47-bearing Raji cells
[19] = target: T1, CD47 (form not stated); test: CD47-SIRPα blocking assay; format not stated; blocking of CD47 binding to SIRPα

percent of cells in the binding gate [1]: 0.079% | percent of cells in the binding gate [2]: 0.018%
Molecule: IgG (antibody)

EC50 [17]: 0.27 nM | EC50 [18]: 0.83 nM | EC50 [19]: 0.3 nM
B3: CD47 antibody 34C5 (antibody, V domains shown)
VH: QVQLVQSGAEVKKPGSSVKVSCKASGYTFSSYYMHWVRQAPGQGLEWMGEINPNNARINFNEKFKTRVTLTVDKSTSTAYMELSSLRSEDTAVYYCTRGYYRYGAWFGYWGQGTLVTVSS
VL: DIQMTQSPSSLSASVGDRVTITCRASQDISDYLNWYQQKPGKAPKLLIYYISRLHSGVPSRFSGSGSGTDYTLTISSLQPEDFATYYCQQGHTLPWTFGGGTKVEIK

Further lines, the molecule ahead of its results:

B1: CD47 antibody 1F8 (antibody, human IgG1, V domains shown)
VH: KVQLVESGGGLVKPGGSLRLSCAASGFTFSNAWMNWVRQAPGKGLEWVGRIKRKTDGETTDYAAPVKGRFSISRDDSKNTLYLQMNSLKTEDTAVYYCAGSNRAFDIWGQGTMVTVSA
VL: DIVMTQSPDSLAVSLGERATINCKSSQSVLYSSNNRNYLAWYQQKPGQPPKLLINQASTRASGVPDRFSGSGSGTEFTLIISSLHAEDVAIYYCQQYYTPPLAFGGGTKLEIK
kon [3]: 375000 M⁻¹ s⁻¹ | EC50 [4]: 2.95 nM | Kd [5]: 2.8 nM | koff [5]: 0.00104 s⁻¹ | percent of cells in the binding gate [1]: 0.065% | percent of cells in the binding gate [2]: 0.076% | EC50 [6]: 0.038 nM | EC50 (read off the curve) [7]: ~200 ng/mL | IC50 [8]: 0.78 nM | IC50 [9]: 1.6 nM | EC50 (read off the curve) [10]: ~6 ng/mL | EC50 (read off the curve) [11]: ~9 ng/mL | percent of CD61+ platelets in the binding gate [12]: 0.77% | IC50 (read off the curve) [13]: ~300 ng/mL

B2: CD47 antibody 13H3 (antibody, V domains shown)
VH: KVQLVESGGGLVKPGGSLRLSCAASGLTFERAWMNWVRQAPGKGLEWVGRIKRKTDGETTDYAAPVKGRFSISRDDSKNTLYLQMNSLKTEDTAVYYCAGSNRAFDIWGQGTMVTVSA
VL: DIVMTQSPDSLAVSLGERATINCKSSQSVLYAGNNRNYLAWYQQKPGQPPKLLINQASTRASGVPDRFSGSGSGTEFTLIISSLQAEDVAIYYCQQYYTPPLAFGGGTKLEIK
Kd [3]: 0.46 nM | koff [3]: 0.000247 s⁻¹ | kon [3]: 533000 M⁻¹ s⁻¹ | EC50 [4]: 1.06 nM | Kd [14]: 7.81 nM | koff [14]: 0.00282 s⁻¹ | kon [14]: 361000 M⁻¹ s⁻¹ | EC50 [15]: 1.07 nM | EC50 [6]: 0.045 nM | IC50 [8]: 0.2 nM | IC50 [16]: 0.36 nM
